{"source": "patent US20060194321A1", "about": "“Directed differentiation of embryonic stem cells and uses thereof” (priority 2005, published 2006)", "test_system": "Human embryonic stem cell 3 (hES3)", "assay": "pdx-1 expression by quantitative RT-PCR in embryoid bodies in 3D […] (initiation protocol)", "assay_type": "cell-based", "conditions": "factor included in or omitted from the early/late factor cocktail, day 20", "method": "Human embryonic stem cell 3 (hES3) were subjected to a multi-step differentiation protocol, as outlined in FIG. 2. The embryonic stem cells were cultured as embryoid bodies suspended in 3D in […]™. The cells were cultured for 10 days in medium containing the early factors and then for 10 days in medium containing the late factors. Following culture, cells were assayed for expression of pdx-1.\nTo establish a baseline for comparison, human embryonic stem cells were differentiated, as described above, in 3-dimensional culture in […]™ for 20 days. […] RNA was isolated and analyzed for pdx-1 and actin expression by RT-PCR. Data were standardized in comparison to actin expression, and the results are expressed as absolute g pdx-1/kg Actin expression+/−SD.\nWe evaluated individual early and late factors. […] This revised protocol differs from the initial 20-day protocol only in the nature of the early and late factors used. This 2 EF-3 LF protocol included the early factors Activin A (50 ng/ml) and BMP-4 (50 ng/ml). The cells were cultured in the early factors as previously described from day 0 to day 10. The 2 EF-3 LF protocol included the late factors HGF (50 ng/ml), exendin-4 (10 ng/ml), and β-cellulin (50 ng/ml).\nRNA isolation, cDNA synthesis, and quantitative PCR: Total RNA from hESC or EBs at various stages of differentiation was isolated using the Qiagen RNeasy kit or prepared using Trizol reagent (Invitrogen) according to the manufacturer's instructions. RNA was and quantified by UV absorption. 1 to 5 μg of RNA was DNase I treated and converted to cDNA using M-MuLV reverse transcriptase (New England Biolabs) using oligo-dT or random hexamer primers according to the manufacturer's instructions. Quantitative PCR was performed according to the manufacturer's instructions using a BioRad iCycler with approximately 50 ng cDNA per reaction containing 250 nM of each primer and 1×SYBR green master mix (Bio-Rad) and analyzed by Bio-RAD thermocycler.\nStandard curves were generated by plotting the log (concentration in fg) of series of 100-fold dilutions of the target PCR amplicon (a range of 10^4 fg to 1 fg per reaction) versus the corresponding threshold Ct value. Normalized expression was determined by the following equation: Normalized expression=(input of target gene/input of actin control), where input is calculated as the inverse log of ((the threshold cycle (Ct value)—Y-intercept of standard curve)/slope of standard curve).", "note": "“Also recorded” adds a separate entry of the source.", "data": [{"molecule": "BMP4: early factor, growth factor, 50 ng/ml (protein, UniProt P12644 293-408, looked up) Bone morphogenetic protein 4: SPKHHSQRARKKNKNCRRHSLYVDFSDVGWNDWIVAPPGYQAFYCHGDCPFPLADHLNSTNHAIVQTLVNSVNSSIPKACCVPTELSAISMLYLDEYDKVVLKNYQEMVVEGCGCR", "values": [{"measurement": "contribution of the factor to induction of pdx-1 expression", "result": "important components"}]}, {"molecule": "Beta-cellulin: late factor growth factor, 50 ng/ml (protein, UniProt P35070 32-111, looked up) Betacellulin: DGNSTRSPETNGLLCGDPEENCAATTTQSKRKGHFSRCPKQYKHYCIKGRCRFVVAEQTPSCVCDEGYIGARCERVDLFY", "values": [{"measurement": "contribution of the factor to induction of pdx-1 expression", "result": "important component"}, {"measurement": "contribution of the factor to induction of pdx-1 expression", "setting": "listed as betacellulin", "result": "optional"}]}, {"molecule": "Activin A: early factor, TGF-β related growth factor, 50 ng/ml (protein, UniProt P08476 311-426, looked up, Inhibin beta A chain, early factor, TGF-β related growth factor, 50 ng/ml) Inhibin beta A chain: GLECDGKVNICCKKQFFVSFKDIGWNDWIIAPSGYHANYCEGECPSHIAGTSGSSLSFHSTVINHYRMRGHSPFANLKSCCVPTKLRPMSMLYYDDGQNIIKKDIQNMIVEECGCS", "values": [{"measurement": "contribution of the factor to induction of pdx-1 expression", "result": "important components"}]}, {"molecule": "Nodal: TGF-β-related ligand, evolutionarily conserved endoderm inducer; recombinant protein (protein, UniProt Q96S42 238-347, looked up) Nodal homolog: HHLPDRSQLCRKVKFQVDFNLIGWGSWIIYPKQYNAYRCEGECPNPVGEEFHPTNHAYIQSLLKRYQPHRVPSTCCAPVKTKPLSMLYVDNGRVLLDHHKDMIVEECGCL", "values": [{"measurement": "contribution of the factor to induction of pdx-1 expression", "result": "little effect; also recorded: does not significantly improve"}, {"measurement": "contribution of the factor to induction of pdx-1 expression", "setting": "listed as nodal", "result": "optional"}]}]}
